The subject of data set [1] is synthetic peptide representing C-terminus of S6 protein.
Data set [2] deals with ribosomal protein S6 (in purified 40S ribosomal subunits from liver).

On to “recombinant p70α^S6k (Flag-tag or EE-tag version, expressed in HEK293 cells)”, for which the “in vitro kinase reaction: phosphorylation of the synthetic peptide” value in data set [1] was “also phosphorylates this peptide but with slightly lower efficiency than observed with p70α^S6k”. The “in vitro kinase reaction: phosphorylation of S6 protein in 40S subunits” value in data set [2] is given as “p70β^S6k (p70β-II isoform) phosphorylates the S6 protein in vitro nearly as efficiently as p70α^S6k”.

The values above are taken from US20050158748.
